According to patent publication US20230265198A1 (TWIST BIOSCIENCE, published 2023):
Residue numbers refer to the chain shown, from its start.

Biological target: T1, neuropilin-1 (NRP1) on HEK293 cells overexpressing NRP1 (UniProt O14786 22-923, limits assumed)
T1 construct: whole, on cells
Assay: flow cytometry, HEK293-NRP1 vs HEK293

B1: NRP1-287 (antibody, IgG2, V domains shown)
VH: EVQLLESGGGLVQPGGSLRLYCAASGFTFGSYGMSWVRQAPGKGLEWVSSISGSGGSTYYTDSVKGRFTISRDNSKNTLYLQMNSLRAEDTAVYYCARDLARGTMPRGVIIPHNWFDPWGQGTLVTVSS
VL: DIQMTQSPSSLSASVGDRVTITCRASQTISNYVNWYQQKPGKAPKLLIYAASSLHAGVPSRFSGSGSGTDFTLTISSLQPEDFATYYCQQGYSTPLTFGGGTKVEIK
For B1, the “100 nM FACS (MFI Ratio)” value was 0.4.

B2: NRP1-299 (antibody, IgG2, V domains shown)
VH: EVQLLESGGGLVQPGGSLRLSCAASGFTFRRYAMSWVRQAPGKGLEWVATISGSGGSTYYADSVKGRFTISRDNSKNTLYLQMNSLRAEDTAVYYCARGGNGSNRRPSLLPRNRAAAIGFESAFDVWGQGTLVTVSS
VL: B1 VL with S30A, V33L, A50R, S53R, H55Q, A56S, G91S, S93N, L96Y
With B2 the “100 nM FACS (MFI Ratio)” value was 2.5.

B3: NRP1-26 (VHH)
VHH: EVQLVESGGGLVQPGGSLRLSCAASGRTFRPYRMGWFRQAPGKEREWISTIYSNGHTYYADSVKGRFTISADNSKNTAYLQMNSLKPEDTAVYYCAAQRRWSQDWGQGTLVTVSS
B3 was tested, and the “100 nM FACS (MFI Ratio)” value was 0.9.

B4: NRP1-31 (VHH)
VHH: EVQLVESGGGLVQPGGSLRLSCAASGLTFRRYDMGWFRQAPGKERELVAIKFSGGSTRYADSVKGRFTISADNSKNTAYLQMNSLKPEDTAVYYCATSSGRVPAALNWGQGTLVTVSS
B4 was tested, and the “100 nM FACS (MFI Ratio)” value was 5.7.

B5: NRP1-32 (VHH)
VHH: B4 VHH with K51I, S70I, S74N, T90N
For B5, the “100 nM FACS (MFI Ratio)” value was 0.3.

B6: NRP1-56 (VHH)
VHH: EVQLVESGGGLVQPGGSLRLSCAASGRTFSSYRMGWFRQAPGKEREFVASIRSSGTTYADSVKGRFTISADNSKNTAYLQMNSLKPEDTAVYYCARDTLGRASSSTDWGQGTLVTVSS
For B6, the “100 nM FACS (MFI Ratio)” value was 5.4.

B7: NRP1-54 (VHH)
VHH: EVQLVESGGGLVQPGGSLRLSCAASGIAFRIRTMGWFRQAPGKEREFVAGISRSGASTAYADSVKGRFTISADNSKNTAYLQMNSLKPEDTAVYYCAARRIVNVEGAYRDWGQGTLVTVSS
With B7 the “100 nM FACS (MFI Ratio)” value was 0.6.

B8: NRP1-29 (VHH)
VHH: EVQLVESGGGLVQPGGSLRLSCAASGFTLDNYAMGWFRQAPGKEREFVARITSGGDTTYYADSVKGRFTISADNSKNTAYLQMNSLKPEDTAVYYCARAYGRGTYDWGQGTLVTVSS
For B8, the “100 nM FACS (MFI Ratio)” value was 26.

B9: NRP1-40 (VHH)
VHH: EVQLVESGGGLVQPGGSLRLSCAASGSITSFNAMGWFRQAPGKERELVASINWSGARTLYADSVKGRFTISADNSKNTAYLQMNSLKPEDTAVYYCASARYYGSGRHFDYWGQGTLVTVSS
For B9, the “100 nM FACS (MFI Ratio)” value was 16.7.

B10: NRP1-19 (VHH)
VHH: EVQLVESGGGLVQPGGSLRLSCAASGIAFRIRTMGWFRQAPGKEREFVAGISRSGASTAYADSVKGRFTISADNSKNTAYLQMNSLKPEDTAVYYCTTDRWYSSNWWGQGTLVTVSS
B10 was tested, and the “100 nM FACS (MFI Ratio)” value was 420.

B11: NRP1-24 (VHH)
VHH: EVQLVESGGGLVQPGGSLRLSCAASGFKFNDSYMGWFRQAPGKEREFVATIWWTFDAPYYADSVKGRFTISADNSKNTAYLQMNSLKPEDTAVYYCAVKERSTGWDFAWGQGTLVTVSS
For B11, the “100 nM FACS (MFI Ratio)” value was 6.4.

B12: NRP1-34 (VHH)
VHH: EVQLVESGGGLVQPGGSLRLSCAASGYTYRKYCMGWFRQAPGKEREWVAAISRSGNLKSYADSVKGRFTISADNSKNTAYLQMNSLKPEDTAVYYCAIKRWPVDTRRRRDMVVGCPGRDEYEWGQGTLVTVSS
With B12 the “100 nM FACS (MFI Ratio)” value was 612.

B13: NRP1-38 (VHH)
VHH: EVQLVESGGGLVQPGGSLRLSCAASGFTFGSTTMGWFRQAPGKEREFVATMRWSTGSTVYADSVKGRFTISADNSKNTAYLQMNSLKPEDTAVYYCAVRGDWWAYWTPWGQGTLVTVSS
With B13 the “100 nM FACS (MFI Ratio)” value was 10.5.

B14: NRP1-28 (VHH)
VHH: EVQLVESGGGLVQPGGSLRLSCAASGFTRSYYTMGWFRQAPGKEREFVAAMNWSGSSTVYADSVKGRFTISADNSKNTAYLQMNSLKPEDTAVYYCAKDTGSPKNYYYYYGMDVWGQGTLVTVSS
In the case of B14, the “100 nM FACS (MFI Ratio)” value is reported as 33.

B15: NRP1-3 (VHH)
VHH: EVQLVESGGGLVQPGGSLRLSCAASGEPTFSSVAMGWFRQAPGKEREWVAEIYPSGSTVYADSVKGRFTISADNSKNTAYLQMNSLKPEDTAVYYCAKTNWNDWGAFDIWGQGTLVTVSS
With B15 the “100 nM FACS (MFI Ratio)” value was 13.4.

B16: NRP1-60 (VHH)
VHH: EVQLVESGGGLVQPGGSLRLSCAASGNIFINNAMGWFRQAPGKERELVAAISGRSGNTYYADSVKGRFTISADNSKNTAYLQMNSLKPEDTAVYYCAARRIVNVEGAYRDWGQGTLVTVSS
In the case of B16, the “100 nM FACS (MFI Ratio)” value is reported as 1.

B17: NRP1-289 (antibody, IgG2, V domains shown)
VH: EVQLLESGGGLVQPGGSLRLSCAASGFTISSSAMGWVRQAPGKGLEWVSALSGSGGSKYYADSVKGRFTISRDNSKNTLYLQMNSLRAEDTAVYYCAKEALPRASRRAAAVRYFHHWGQGTLVTVSS
VL: DIQMTQSPSSLSASVGDRVTITCRASQNIVRYLNWYQQKPGKAPKLLIYTASNLQTGVPSRFSGSGSGTDFTLTISSLQPEDFATYYCQESYSRTFGGGTKVEIK
For B17, the “100 nM FACS (MFI Ratio)” value was 0.9.

B18: NRP1-63 (VHH)
VHH: EVQLVESGGGLVQPGGSLRLSCAASGTFGSYTMGWFRQAPGKERELVATIWWTFDAPYYADSVKGRFTISADNSKNTAYLQMNSLKPEDTAVYYCAAYQAGWGDWGQGTLVTVSS
With B18 the “100 nM FACS (MFI Ratio)” value was 8.3.

B19: NRP1-20 (VHH)
VHH: EVQLVESGGGLVQPGGSLRLSCAASGSTFSLFAMGWFRQAPGKEREFVAAISRSGGLTSYADSVKGRFTISADNSKNTAYLQMNSLKPEDTAVYYCAKAAGDWTYDEDYYYMDVWGQGTLVTVSS
In the case of B19, the “100 nM FACS (MFI Ratio)” value is reported as 50.9.

B20: NRP1-36 (VHH)
VHH: EVQLVESGGGLVQPGGSLRLSCAASGFPVNRYSMGWFRQAPGKEREFVATITVGGSTYYADSVKGRFTISADNSKNTAYLQMNSLKPEDTAVYYCARQFGAWLGEVVGPMDVWGQGTLVTVSS
For B20, the “100 nM FACS (MFI Ratio)” value was 3.

B21: NRP1-55 (VHH)
VHH: EVQLVESGGGLVQPGGSLRLSCAASGFTLDYYVMGWFRQAPGKEREWVAFISGSGSKFYADSVKGRFTISADNSKNTAYLQMNSLKPEDTAVYYCVIQHFWSGYDDDYWGQGTLVTVSS
With B21 the “100 nM FACS (MFI Ratio)” value was 2.7.

B22: NRP1-52 (VHH)
VHH: EVQLVESGGGLVQPGGSLRLSCAASGFTFSWYPMGWFRQAPGKEREFVAAISPSGSTDYADSVKGRFTISADNSKNTAYLQMNSLKPEDTAVYYCARDPNYDFWSGYYSSEHYFDYWGQGTLVTVSS
In the case of B22, the “100 nM FACS (MFI Ratio)” value is reported as 10.7.

B23: NRP1-288 (antibody, IgG2, V domains shown)
VH: EVQLLESGGGLVQPGGSLRLSCAASGFTFSTFAMSWVRQAPGKGLEWVSTISGSGTSTYYADSVKGRFTISRDNSKNTLYLQMNSLRAEDTAVYYCARFPGDRGYYHYYMDVWGQGTLVTVSS
VL: DIQMTQSPSSLSASVGDRVTITCRASQSIARYLNWYQQKPGKAPKLLIYRASRLQSGVPSRFSGSGSGTDFALTISSLQPEDFATYYCQQSFSPPFTFGGGTKVEIK
For B23, the “100 nM FACS (MFI Ratio)” value was 3.9.

B24: NRP1-292 (antibody, IgG2, V domains shown)
VH: EVQLLESGGGLVQPGGSLRLSCAASGFTLSSYAMAWVRQAPGKGLEWVSAIRGSGGTTYYADSVKGRFTISRDNSKNTLYLQMNSLRAEDTAVYYCARRGRAPRMVRGVVNRRPYYFDYWGQGTLVTVSS
VL: B23 VL with A25T, R31T, R50G, L54S, A72T, F92Y, S93F, P94T, F96P
For B24, the “100 nM FACS (MFI Ratio)” value was 0.4.

B25: NRP1-290 (antibody, IgG2, V domains shown)
VH: EVQLLESGGGLVQPGGSLRLSCAASGFTFRNYAMTWVRQAPGKGLEWVSGISGSGGSTYYSDSVKGRFTISRDNSKNTLYLQMNSLRAEDTAVYYCARGRRGMPTPDTVRKMSKSHLYFDSWGQGTLVTVSS
VL: B23 VL with A25T, A30S, R50G, R53T, A72T, S91N, F92Y, S93I, P94I, F96W
For B25, the “100 nM FACS (MFI Ratio)” value was 0.6.

B26: NRP1-42 (VHH)
VHH: EVQLVESGGGLVQPGGSLRLSCAASGRTISNYDMGWFRQAPGKEREWVASINWGDGNTYYADSVKGRFTISADNSKNTAYLQMNSLKPEDTAVYYCARAPTYYYDSSGYYYAYWGQGTLVTVSS
With B26 the “100 nM FACS (MFI Ratio)” value was 4.

B27: NRP1-30 (VHH)
VHH: EVQLVESGGGLVQPGGSLRLSCAASGRTLSSYNMGWFRQAPGKEREFVARIWPGGGTTYADSVKGRFTISADNSKNTAYLQMNSLKPEDTAVYYCARDYFGSGSYYDWGQGTLVTVSS
B27 was tested, and the “100 nM FACS (MFI Ratio)” value was 40.2.

B28: NRP1-39 (VHH)
VHH: EVQLVESGGGLVQPGGSLRLSCAASGRTFSGDVMGWFRQAPGKEREFVAAINYSGRSINYADSVKGRFTISADNSKNTAYLQMNSLKPEDTAVYYCARETLWLKRYWGQGTLVTVSS
With B28 the “100 nM FACS (MFI Ratio)” value was 5.6.

B29: NRP1-57 (VHH)
VHH: EVQLVESGGGLVQPGGSLRLSCAASGFTFSNSGMGWFRQAPGKERELVARITRGGRTYADSVKGRFTISADNSKNTAYLQMNSLKPEDTAVYYCAARRIVNVEGAYRDWGQGTLVTVSS
For B29, the “100 nM FACS (MFI Ratio)” value was 0.1.

B30: NRP1-21 (VHH)
VHH: EVQLVESGGGLVQPGGSLRLSCAASGRSRYGMGWFRQAPGKEREFVAAITRSGKTTYYADSVKGRFTISADNSKNTAYLQMNSLKPEDTAVYYCARRLLSGSPSRSYYFDYWGQGTLVTVSS
With B30 the “100 nM FACS (MFI Ratio)” value was 1.
